Results reported in the supplement of paper PMC9112550, “Optimization of the antimicrobial peptide Bac7 by deep mutational scanning” (BMC Biology, 2022).

System: Escherichia coli TOP10
Assay: shrunken log2 fold change of peptide-encoding DNA abundance (4.5 h post-induction vs induction); higher = less antimicrobial activity (less host growth inhibition)
Conditions: time post-induction: 4.5 h; library: site-saturation at positions 5, 18, 19, 20
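Also: peptides expressed intracellularly from a pBAD plasmid library in pooled LB shake-flask culture, induced with 0.3% L-arabinose, DNA abundance read by NGS, three biological replicates, DESeq2 with apeglm shrinkage.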

Sequence	shrunken log2 fold change
RRIRYRPPRLPRPRPRPKFEPRP	-0.0286
RRIRRRPPRLPRPRPRPPFWPRP	0.959
RRIRSRPPRLPRPRPRPTSDPRP	-0.00252
RRIRQRPPRLPRPRPRPVQCPRP	-0.16
RRIRTRPPRLPRPRPRPLASPRP	0.125
RRIRQRPPRLPRPRPRPCDAPRP	-0.027
RRIRWRPPRLPRPRPRPRWGPRP	0.534
RRIRMRPPRLPRPRPRPRSPPRP	0.921
RRIRIRPPRLPRPRPRPYYEPRP	-1.06
RRIRPRPPRLPRPRPRPLMAPRP	0.213
RRIRARPPRLPRPRPRPLIKPRP	0.0844
RRIRHRPPRLPRPRPRPGGSPRP	-0.0606
RRIRKRPPRLPRPRPRPEGSPRP	0.102
RRIRCRPPRLPRPRPRPPLCPRP	0.674
RRIRKRPPRLPRPRPRPFQAPRP	0.0945
RRIRGRPPRLPRPRPRPHFNPRP	0.232
RRIRQRPPRLPRPRPRPLQGPRP	0.0512
RRIRVRPPRLPRPRPRPSFHPRP	-0.439
RRIRSRPPRLPRPRPRPVKDPRP	-0.315
RRIRTRPPRLPRPRPRPANNPRP	-0.736
RRIRGRPPRLPRPRPRPCNIPRP	-0.284
RRIRQRPPRLPRPRPRPITIPRP	-0.239

Sequence	shrunken log2 fold change
RRIRCRPPRLPRPRPRPIALPRP	-0.102
RRIRLRPPRLPRPRPRPRNYPRP	-0.0808
RRIRDRPPRLPRPRPRPNRQPRP	-0.0252
RRIRIRPPRLPRPRPRPCVCPRP	-0.0463
RRIRHRPPRLPRPRPRPWTGPRP	-0.104
RRIRARPPRLPRPRPRPTWFPRP	0.225
RRIRHRPPRLPRPRPRPKINPRP	-0.817
RRIRVRPPRLPRPRPRPMSQPRP	-0.296
RRIRCRPPRLPRPRPRPSDMPRP	-0.415
RRIRKRPPRLPRPRPRPNWIPRP	-0.2
RRIRKRPPRLPRPRPRPTKIPRP	0.269
RRIRQRPPRLPRPRPRPNTYPRP	-1.07
RRIRGRPPRLPRPRPRPTFCPRP	0.46
RRIRARPPRLPRPRPRPKEEPRP	-0.0728
RRIRERPPRLPRPRPRPIHMPRP	-0.0835
RRIRGRPPRLPRPRPRPAVMPRP	0.946
RRIRPRPPRLPRPRPRPAMTPRP	-0.085
RRIRKRPPRLPRPRPRPGAEPRP	1.26
RRIRRRPPRLPRPRPRPYQLPRP	-0.234
RRIRIRPPRLPRPRPRPTAKPRP	-0.184
RRIRWRPPRLPRPRPRPACEPRP	0.11
RRIRFRPPRLPRPRPRPRGKPRP	0.734

Sequence	shrunken log2 fold change
RRIRRRPPRLPRPRPRPKGQPRP	0.176
RRIRTRPPRLPRPRPRPKWGPRP	0.118
RRIRGRPPRLPRPRPRPCVVPRP	0.293
RRIRMRPPRLPRPRPRPYPVPRP	-0.237
RRIRIRPPRLPRPRPRPCNWPRP	-0.135
RRIRARPPRLPRPRPRPQAFPRP	-0.323
RRIRQRPPRLPRPRPRPKWTPRP	-0.164
RRIRVRPPRLPRPRPRPIHRPRP	-0.3
RRIRTRPPRLPRPRPRPEVIPRP	-0.0149
RRIRARPPRLPRPRPRPDMSPRP	0.0274
RRIRYRPPRLPRPRPRPDYIPRP	-0.0327
RRIRCRPPRLPRPRPRPEVMPRP	-0.0567
RRIRTRPPRLPRPRPRPVTEPRP	0.0394
RRIRMRPPRLPRPRPRPIAFPRP	-0.0147
RRIRDRPPRLPRPRPRPCIYPRP	-0.0518
RRIRTRPPRLPRPRPRPMWLPRP	-0.0194
RRIRNRPPRLPRPRPRPPYGPRP	-0.0471
RRIRTRPPRLPRPRPRPPQMPRP	0.185
RRIRARPPRLPRPRPRPRNEPRP	0.557
RRIRFRPPRLPRPRPRPTGEPRP	0.583
RRIRSRPPRLPRPRPRPCGSPRP	0.102
RRIRGRPPRLPRPRPRPKSEPRP	0.9

Sequence	shrunken log2 fold change
RRIRKRPPRLPRPRPRPSGWPRP	-0.146
RRIRIRPPRLPRPRPRPRPVPRP	0.371
RRIRMRPPRLPRPRPRPCRGPRP	0.0309
RRIRGRPPRLPRPRPRPRCGPRP	0.751
RRIRLRPPRLPRPRPRPTMSPRP	-0.226
RRIRCRPPRLPRPRPRPGAPPRP	0.734
RRIRLRPPRLPRPRPRPIQPPRP	0.0112
RRIRGRPPRLPRPRPRPVHVPRP	0.0798
RRIRIRPPRLPRPRPRPQCPPRP	-0.472
RRIRMRPPRLPRPRPRPWFCPRP	-1.02
RRIRRRPPRLPRPRPRPRRFPRP	0.352
RRIRNRPPRLPRPRPRPYSKPRP	-0.926
RRIRNRPPRLPRPRPRPRNGPRP	-0.0619
RRIRMRPPRLPRPRPRPLMNPRP	-0.263
RRIRHRPPRLPRPRPRPIRRPRP	0.0591
RRIRHRPPRLPRPRPRPGAEPRP	0.13
RRIRQRPPRLPRPRPRPEVKPRP	-0.0062
RRIRGRPPRLPRPRPRPTPSPRP	0.954
RRIRMRPPRLPRPRPRPLSKPRP	-0.103
RRIRLRPPRLPRPRPRPPFYPRP	-0.185
RRIRYRPPRLPRPRPRPQLPPRP	-0.0333
RRIRKRPPRLPRPRPRPCMNPRP	-0.279

Sequence	shrunken log2 fold change
RRIRQRPPRLPRPRPRPKLTPRP	-0.0707
RRIRWRPPRLPRPRPRPFMYPRP	-0.0072
RRIRERPPRLPRPRPRPMNHPRP	-0.811
RRIRNRPPRLPRPRPRPGCKPRP	-0.00214
RRIRERPPRLPRPRPRPYFVPRP	-0.892
RRIRHRPPRLPRPRPRPWYKPRP	-1.2
RRIRVRPPRLPRPRPRPKRHPRP	0.0244
RRIRIRPPRLPRPRPRPDWGPRP	-0.0242
RRIRWRPPRLPRPRPRPHSHPRP	-3.83e-05
RRIRYRPPRLPRPRPRPSKRPRP	-0.236
RRIRNRPPRLPRPRPRPNAIPRP	-0.0211
RRIRIRPPRLPRPRPRPNQMPRP	-0.173
RRIRIRPPRLPRPRPRPRQVPRP	0.0368
RRIRDRPPRLPRPRPRPCESPRP	-0.00192
RRIRIRPPRLPRPRPRPKETPRP	-0.0675
RRIRARPPRLPRPRPRPLLNPRP	0.373
RRIRCRPPRLPRPRPRPHPRPRP	0.444
RRIRERPPRLPRPRPRPLYNPRP	-0.264
RRIRIRPPRLPRPRPRPFPQPRP	-0.549
RRIRKRPPRLPRPRPRPKWDPRP	0.361
RRIRHRPPRLPRPRPRPHFYPRP	-0.139
